Test results: patent US20170224620A1 (Pfizer, published 2017)
Bridges are numbered along the chain shown (N, C = ends). Primed or numbered codes have the meaning given here. Side-chain parts run from the residue outwards. [ ]: non-standard residue; d: D form. The star is where a group is joined. Trp(5-OMe) = COc1ccc2[nH]cc(C[C@H](N)C(=O)O)c2c1; Igl = N[C@H](C(=O)O)C1Cc2ccccc2C1; Pen = CC(C)(S)[C@H](N)C(=O)O; DBCO′ = dibenzocyclooctyne; PEG4′ = not defined here; Pra = C#CC[C@H](N)C(=O)O; Dap = NC[C@H](N)C(=O)O; Acm = CC(=O)NC*

Columns and labels:
[1] = target: EGF bound EGFR (rhEGFR-Fc with recombinant human EGF pre-injected in SPR or 50 nM EGF present in ELISA) (human) (UniProt P00533); test: P2 competition ELISA, 5% nanoparticle conjugate
[2] = target: T1, EGF bound EGFR (rhEGFR-Fc with recombinant human EGF pre-injected in SPR or 50 nM EGF present in ELISA) (human, UniProt P00533 25-645; P01133 971-1023); test: P2 competition ELISA, 5% ligand density NP
T1 construct: Complex of m1 and m5 as target; also called EGFR in the presence of EGF; With EGF; not shown: Fc tag

[3] = target: T1, EGF bound EGFR (rhEGFR-Fc with …); test: P2 competition ELISA, 1% ligand density NP
[4] = target: T1, EGF bound EGFR (rhEGFR-Fc with …); test: SPR, peptide over captured rhEGFR-Fc after rhEGF pre-injection
Method: (§1) Surface plasmon resonance (SPR) binding studies were carried out on a Biacore T200 instrument (GE Healthcare). […] The contact time and resulting amount of rhEGFR-Fc capture was varied based on the nature of the analyte, namely whether it was a peptide or nanoparticle.
(§2) Peptide binding assays were carried out in 10 mM PBS buffer supplemented with 0.05% surfactant P20 and 5% DMSO by volume, at 25° C. Peptides were injected over the rhEGFR-Fc surface for 60 s, followed by dissociation (buffer injection) for 60 s and regeneration with a 10 s pulse of 3M MgCl₂. A fresh rhEGFR-Fc surface was generated for each concentration of each peptide tested. Peptide binding data was analyzed by fitting to a 1:1 Langmuir kinetic model to obtain the on-rate (kₐ), off-rate (kd) and/or equilibrium binding constant (KD) of the interaction.

[5] = target: T2, Fc tagged recombinant human EGFR (rhEGFR-Fc, R&D systems, Cat#344-ER-050) (human, UniProt P00533 25-645); test: SPR, peptide over captured rhEGFR-Fc, without EGF
T2 construct: Bought protein; also called apo-EGFR; not shown: Fc tag
Method: as §1, §2
The two aromatic mutations P₂₋₉₈ and P₂₋₁₀₁ were combined into one peptide (P₂₋₁₀₂).

[6] = target: T2, Fc tagged recombinant human EGFR …; test: SPR, response against peptide concentration, rhEGFR-Fc captured
Method: as §1, §2
All of the peptides were synthesized and evaluated for EGFR binding using SPR (Table 7). […] FIGS. 8A and 8B show a summary of the SPR binding data for the peptides.

[7] = target: T2, Fc tagged recombinant human EGFR …; test: screening ELISA, peptide 100 µM against 0.7 nM biotin-EGF on coated rhEGFR
[8] = target: T2, Fc tagged recombinant human EGFR …; test: EGF competition ELISA, free peptide
Method: An alanine scan was performed on the amino acids within the cyclic portion of the peptide structure to determine which amino acids were critical for binding. Each amino acid within the peptide was individually replaced with alanine. […] Subsequently, an alanine scan of the flanking amino acids on P₁₋₃ was performed.

[9] = target: T2, Fc tagged recombinant human EGFR …; test: SPR

B1: 5% P2-2/102 nanoparticle (peptide)
peptide: Ac-DACT[Igl]EV[Trp(5-OMe)]GRECLQGGK(DBCO′)-NH2
modifications: disulfide 3-12; not fully specified
Work on B1 yielded an IC50 [1] of 3.7 µg/mL and a Rel. Diff. (against P2 NP) [1] of 0.62.

B2: 5% P2-55/102 nanoparticle (peptide)
peptide: Ac-DP[Pen]T[Igl]EV[Trp(5-OMe)]GRE[Pen]LQGGK(DBCO′)-NH2
modifications: disulfide 3-12; not fully specified
B2 was tested, and the IC50 [1] was 2.2 µg/mL and the Rel. Diff. (against P2 NP) [1] was 0.37.

B3: 5% P2-2/55/102 nanoparticle (peptide)
peptide: Ac-DA[Pen]T[Igl]EV[Trp(5-OMe)]GRE[Pen]LQGGK(DBCO′)-NH2
modifications: disulfide 3-12; not fully specified
In the case of B3, the IC50 [1] is reported as 1.6 µg/mL and the Rel. Diff. (against P2 NP) [1] is reported as 0.27.

B4: 5% P2-2 nanoparticle (other)
peptide: Ac-DACTWEVWGRECLQGGK-NH2
modifications: disulfide 3-12; not fully specified (residue 17)
notes: also called P2-2 5% Ligand Density NP; alanine analog NP
B4 was tested, and the IC50 [2] was 3 µg/mL and the “Rel IC50 (against P2 NP)” value [2] was 0.7 ratio.

B5: 5% P2-102 nanoparticle (other)
peptide: Ac-DPCT[Igl]EV[Trp(5-OMe)]GRECLQGGK([PEG4′-DBCO′])-NH2
modifications: disulfide 3-12; not fully specified
notes: also called aromatic analog NP
For B5, the IC50 [2] was 2.6 µg/mL and the “Rel IC50 (against P2 NP)” value [2] was 0.6 ratio.

B6: 1% P2-2 nanoparticle (other)
peptide: Ac-DACTWEVWGRECLQGGK-NH2
modifications: disulfide 3-12; not fully specified (residue 17)
notes: also called P2-2 1% Ligand Density NP
For B6, the IC50 [3] was 17 µg/mL and the “Rel IC50 (against P2 NP)” value [3] was 0.2 ratio.

B7: 1% P2-102 nanoparticle (other)
peptide: Ac-DPCT[Igl]EV[Trp(5-OMe)]GRECLQGGK([PEG4′-DBCO′])-NH2
modifications: disulfide 3-12; not fully specified
B7 was tested, and the IC50 [3] was 7.6 µg/mL and the “Rel IC50 (against P2 NP)” value [3] was 0.09 ratio.

B8: P2-2/102 (Ac-DACT(2Ind)GEV(5MeO)WGRECLQGGK(DBCO)-CONH2) (peptide)
peptide: Ac-DACT[Igl]EV[Trp(5-OMe)]GRECLQGGK(DBCO′)-NH2
modifications: disulfide 3-12
notes: also called DA Aro
For B8, the Kd [4] was 23.3 nM and the Kd [5] was 23.8 nM.

B9: P2-102 (Ac-DPCT(2Ind)GEV(5MeO)WGRECLQGGK(PEG4-DBCO)-CONH2) (peptide)
peptide: Ac-DPCT[Igl]EV[Trp(5-OMe)]GRECLQGGK(PEG4‑DBCO)-NH2
modifications: disulfide 3-12
notes: also called aromatic analog
B9 gave a Kd [4] of 32 nM and a Kd [5] of 38 nM.

B10: Peptide 4 (peptide)
peptide: Ac-SGCLDALWQCVY-NH2
modifications: disulfide 3-10 (inferred)
notes: named singly only on the sheet
B10: binds [6].

B11: Peptide 1 (peptide)
peptide: Ac-SECFPLAPDWLSCIL-NH2
modifications: disulfide 3-13 (inferred)
notes: named singly only on the sheet; also called free literature peptide without the GGK(DBCO) tail
B11: binds [6].

B12: Peptide 8 (peptide)
peptide: Ac-MFCFRWYAGWSCVS-NH2
modifications: disulfide 3-12 (inferred)
notes: as for B10
B12: binds [6].

B13: EGFf-1 (peptide)
peptide: H-NSDSECPLSH-NH2
With B13 the “% inhibition of EGF” value [7] was < 20%.

B14: EGFf-6 (peptide)
peptide: H-LDKYACNC(Acm)VV-NH2
SMILES: CC(=O)NCSC[C@H](NC(=O)[C@H](CC(N)=O)NC(=O)[C@H](CS)NC(=O)[C@H](C)NC(=O)[C@H](Cc1ccc(O)cc1)NC(=O)[C@H](CCCCN)NC(=O)[C@H](CC(=O)O)NC(=O)[C@@H](N)CC(C)C)C(=O)N[C@H](C(=O)N[C@H](C(N)=O)C(C)C)C(C)C
For B14, the “% inhibition of EGF” value [7] was < 20%.

B15: EGFf-7 (peptide)
peptide: H-C(Acm)NCVVGYIGE-NH2
SMILES: CC[C@H](C)[C@H](NC(=O)[C@H](Cc1ccc(O)cc1)NC(=O)CNC(=O)[C@@H](NC(=O)[C@@H](NC(=O)[C@H](CS)NC(=O)[C@H](CC(N)=O)NC(=O)[C@@H](N)CSCNC(C)=O)C(C)C)C(C)C)C(=O)NCC(=O)N[C@@H](CCC(=O)O)C(N)=O
With B15 the “% inhibition of EGF” value [7] was < 20%.

B16: EGFf-8 (peptide)
peptide: H-GYIGERCQYR-NH2
B16 was tested, and the “% inhibition of EGF” value [7] was < 20%.

B17: P2-55 (Ac-DPPen…enLQGGK(PEG4-DBCO)-CONH2) (peptide)
peptide: DPXTWEVWGREXLQGGK
modifications: N-terminal acetyl; penicillamine at 3 and 12, disulfide; Lys17(PEG4-DBCO); C-terminal amide
notes: also called Pen analog
Work on B17 yielded a Kd [4] of 69 nM and a Kd [5] of 74 nM.

B18: P2-2/55 (Ac-DAPen…enLQGGK(DBCO)-CONH2) (peptide)
peptide: DAXTWEVWGREXLQGGK
modifications: N-terminal acetyl; penicillamine at 3 and 12, disulfide; Lys17(DBCO); C-terminal amide
notes: also called DA PenPen
B18 was tested, and the Kd [4] was 97 nM and the Kd [5] was 137 nM.

B19: P2-2/55/102 (Ac-DAPenT(2Ind)GEV(5MeO)WGREPenLQGGK(DBCO)-CONH2) (peptide)
peptide: Ac-DA[Pen]T[Igl]EV[Trp(5-OMe)]GRE[Pen]LQGGK(DBCO′)-NH2
modifications: disulfide 3-12
notes: also called DA Aro PenPen; triple mutant
With B19 the Kd [4] was 33.4 nM and the Kd [5] was 53 nM.

B20: P2-55/102 (Ac-DPPenT(2Ind)GEV(5MeO)WGREPenLQGGK(DBCO)-CONH2) (peptide)
peptide: Ac-DP[Pen]T[Igl]EV[Trp(5-OMe)]GRE[Pen]LQGGK(DBCO′)-NH2
modifications: disulfide 3-12
notes: also called Aro PenPen
B20 was tested, and the Kd [4] was 75.4 nM and the Kd [5] was 72 nM.

B21: EGFf-9 (peptide)
peptide: H-RCQYRDLKWW-NH2
For B21, the “% inhibition of EGF” value [7] was 63.8%.

B22: EGFf-10 (peptide)
peptide: H-YRDLKWWELR-NH2
For B22, the “% inhibition of EGF” value [7] was < 20%.

B23: 5% P2-55 nanoparticle (other)
peptide: DPXTWEVWGREXLQGGK
modifications: not fully specified; N-terminal acetyl; penicillamine at 3 and 12, disulfide; Lys17(PEG4-DBCO) clicked to azide PLA-PEG nanoparticle at 5%; C-terminal amide
notes: also called P2-55 5% Ligand Density NP; Pen analog NP
With B23 the IC50 [2] was 3.4 µg/mL and the “Rel IC50 (against P2 NP)” value [2] was 0.79 ratio.

B24: 1% P2-55 nanoparticle (other)
peptide: DPXTWEVWGREXLQGGK
modifications: not fully specified; N-terminal acetyl; penicillamine at 3 and 12, disulfide; Lys17(PEG4-DBCO) clicked to azide PLA-PEG nanoparticle at 1%; C-terminal amide
notes: also called P2-55 1% Ligand Density NP
In the case of B24, the IC50 [3] is reported as 135 µg/mL and the “Rel IC50 (against P2 NP)” value [3] is reported as 1.67 ratio.

B25: P1-1 (peptide)
peptide: Ac-SECAPLAPDWLSCILGGK(DBCO′)-NH2
modifications: disulfide 3-13
notes: also called P1 alanine scan, AA position 4
With B25 the “Peptide Relative IC50 (normalized to P1)” value [8] was 1.9 ratio.

B26: P1-2 (peptide)
peptide: Ac-SECFALAPDWLSCILGGK(DBCO′)-NH2
modifications: disulfide 3-13
notes: also called P1 alanine scan, AA position 5
For B26, the “Peptide Relative IC50 (normalized to P1)” value [8] was 11.5 ratio.

B27: P1-3-1 (peptide)
peptide: Ac-AECFPAAPDWLSCILGGK(DBCO′)-NH2
modifications: disulfide 3-13
notes: also called alanine scan of flanking residues on P1-3, AA position 1
For B27, the “Peptide Relative IC50 (normalized to P1)” value [8] was 0.7 ratio.

B28: P1-3-4 (peptide)
peptide: Ac-SECFPAAPDWLSCIAGGK(DBCO′)-NH2
modifications: disulfide 3-13
notes: also called alanine scan of flanking residues on P1-3, AA position 15
B28 was tested, and the “Peptide Relative IC50 (normalized to P1)” value [8] was 3.2 ratio.

B29: P1-4 (peptide)
peptide: Ac-SECFPLAADWLSCILGGK(DBCO′)-NH2
modifications: disulfide 3-13
notes: also called P1 alanine scan, AA position 8
In the case of B29, the “Peptide Relative IC50 (normalized to P1)” value [8] is reported as 2.7 ratio.

B30: P1-5 (peptide)
peptide: Ac-SECFPLAPAWLSCILGGK(DBCO′)-NH2
modifications: disulfide 3-13
notes: also called P1 alanine scan, AA position 9
For B30, the “Peptide Relative IC50 (normalized to P1)” value [8] was 4.4 ratio.

B31: P1-6 (peptide)
peptide: Ac-SECFPLAPDALSCILGGK(DBCO′)-NH2
modifications: disulfide 3-13
notes: also called P1 alanine scan, AA position 10
For B31, the “Peptide Relative IC50 (normalized to P1)” value [8] was 7.1 ratio.

B32: P1-7 (peptide)
peptide: Ac-SECFPLAPDWASCILGGK(DBCO′)-NH2
modifications: disulfide 3-13
notes: also called P1 alanine scan, AA position 11
With B32 the “Peptide Relative IC50 (normalized to P1)” value [8] was 3.5 ratio.

B33: P1-8 (peptide)
peptide: Ac-SECFPLAPDWLACILGGK(DBCO′)-NH2
modifications: disulfide 3-13
notes: also called P1 alanine scan, AA position 12
With B33 the “Peptide Relative IC50 (normalized to P1)” value [8] was 1 ratio.

B34: P2-66 (peptide)
peptide: H-GDPDTWEVWGRE[Dap]LQGG[Pra]G-NH2
modifications: lactam 4-13
B34: no binding [9].
